Measurements: patent publication US20250263472A1 (IGGENIX, published 2025)

Molecular target: T1, Natural Ara h 6 (InBio) (peanut, UniProt Q647G9 22-145)
T1 sequence (looked up): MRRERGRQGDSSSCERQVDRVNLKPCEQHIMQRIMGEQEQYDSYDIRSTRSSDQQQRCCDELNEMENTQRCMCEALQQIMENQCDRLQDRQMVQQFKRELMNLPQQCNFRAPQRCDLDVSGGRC
Assay: told in the description of Combination-1; assay not named

binding result: binds
B1: Molecule-1a (bispecific antibody, human IgG4 S228P, kappa)
heavy: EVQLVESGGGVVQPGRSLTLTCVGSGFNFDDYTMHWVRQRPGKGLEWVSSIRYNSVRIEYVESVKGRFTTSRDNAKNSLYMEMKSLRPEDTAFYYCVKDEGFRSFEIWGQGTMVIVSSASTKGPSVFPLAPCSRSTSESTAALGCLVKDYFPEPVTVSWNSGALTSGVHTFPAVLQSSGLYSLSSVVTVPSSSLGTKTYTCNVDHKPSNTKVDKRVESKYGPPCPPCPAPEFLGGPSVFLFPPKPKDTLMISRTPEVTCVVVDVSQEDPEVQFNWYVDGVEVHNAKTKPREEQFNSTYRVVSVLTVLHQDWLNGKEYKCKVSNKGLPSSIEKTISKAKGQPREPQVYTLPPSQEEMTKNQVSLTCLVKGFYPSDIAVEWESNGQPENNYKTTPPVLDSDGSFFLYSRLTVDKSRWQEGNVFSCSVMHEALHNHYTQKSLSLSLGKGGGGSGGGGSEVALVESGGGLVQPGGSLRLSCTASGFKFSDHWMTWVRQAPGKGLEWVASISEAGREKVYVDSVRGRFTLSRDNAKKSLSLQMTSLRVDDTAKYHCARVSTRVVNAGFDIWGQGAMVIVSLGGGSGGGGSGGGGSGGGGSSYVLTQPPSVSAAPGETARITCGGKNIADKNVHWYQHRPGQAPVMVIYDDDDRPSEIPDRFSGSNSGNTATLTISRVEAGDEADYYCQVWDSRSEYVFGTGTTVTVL
light: DIVMTQSPLSLPVTPGEPASISCRSTQSLEHSNGYHYLDWYVQKAGQSPQLLISLGSKRASGVPDRFSGSVSGTDFTLKISRVEAEDVGVYYCMQALQTWTFGQGTKVEIKRTVAAPSVFIFPPSDEQLKSGTASVVCLLNNFYPREAKVQWKVDNALQSGNSQESVTEQDSKDSTYSLSSTLTLSKADYEKHKVYACEVTHQGLSSPVTKSFNRGEC
notes: CMC liabilities removed; also called Molecule-1 (of Combination-1)
